Experimental data published in patent US12746270 (dated 2026).

Biological target: human megalin (human)
Assay: SPR

Sequence of human megalin (human) (O00711 whole entry): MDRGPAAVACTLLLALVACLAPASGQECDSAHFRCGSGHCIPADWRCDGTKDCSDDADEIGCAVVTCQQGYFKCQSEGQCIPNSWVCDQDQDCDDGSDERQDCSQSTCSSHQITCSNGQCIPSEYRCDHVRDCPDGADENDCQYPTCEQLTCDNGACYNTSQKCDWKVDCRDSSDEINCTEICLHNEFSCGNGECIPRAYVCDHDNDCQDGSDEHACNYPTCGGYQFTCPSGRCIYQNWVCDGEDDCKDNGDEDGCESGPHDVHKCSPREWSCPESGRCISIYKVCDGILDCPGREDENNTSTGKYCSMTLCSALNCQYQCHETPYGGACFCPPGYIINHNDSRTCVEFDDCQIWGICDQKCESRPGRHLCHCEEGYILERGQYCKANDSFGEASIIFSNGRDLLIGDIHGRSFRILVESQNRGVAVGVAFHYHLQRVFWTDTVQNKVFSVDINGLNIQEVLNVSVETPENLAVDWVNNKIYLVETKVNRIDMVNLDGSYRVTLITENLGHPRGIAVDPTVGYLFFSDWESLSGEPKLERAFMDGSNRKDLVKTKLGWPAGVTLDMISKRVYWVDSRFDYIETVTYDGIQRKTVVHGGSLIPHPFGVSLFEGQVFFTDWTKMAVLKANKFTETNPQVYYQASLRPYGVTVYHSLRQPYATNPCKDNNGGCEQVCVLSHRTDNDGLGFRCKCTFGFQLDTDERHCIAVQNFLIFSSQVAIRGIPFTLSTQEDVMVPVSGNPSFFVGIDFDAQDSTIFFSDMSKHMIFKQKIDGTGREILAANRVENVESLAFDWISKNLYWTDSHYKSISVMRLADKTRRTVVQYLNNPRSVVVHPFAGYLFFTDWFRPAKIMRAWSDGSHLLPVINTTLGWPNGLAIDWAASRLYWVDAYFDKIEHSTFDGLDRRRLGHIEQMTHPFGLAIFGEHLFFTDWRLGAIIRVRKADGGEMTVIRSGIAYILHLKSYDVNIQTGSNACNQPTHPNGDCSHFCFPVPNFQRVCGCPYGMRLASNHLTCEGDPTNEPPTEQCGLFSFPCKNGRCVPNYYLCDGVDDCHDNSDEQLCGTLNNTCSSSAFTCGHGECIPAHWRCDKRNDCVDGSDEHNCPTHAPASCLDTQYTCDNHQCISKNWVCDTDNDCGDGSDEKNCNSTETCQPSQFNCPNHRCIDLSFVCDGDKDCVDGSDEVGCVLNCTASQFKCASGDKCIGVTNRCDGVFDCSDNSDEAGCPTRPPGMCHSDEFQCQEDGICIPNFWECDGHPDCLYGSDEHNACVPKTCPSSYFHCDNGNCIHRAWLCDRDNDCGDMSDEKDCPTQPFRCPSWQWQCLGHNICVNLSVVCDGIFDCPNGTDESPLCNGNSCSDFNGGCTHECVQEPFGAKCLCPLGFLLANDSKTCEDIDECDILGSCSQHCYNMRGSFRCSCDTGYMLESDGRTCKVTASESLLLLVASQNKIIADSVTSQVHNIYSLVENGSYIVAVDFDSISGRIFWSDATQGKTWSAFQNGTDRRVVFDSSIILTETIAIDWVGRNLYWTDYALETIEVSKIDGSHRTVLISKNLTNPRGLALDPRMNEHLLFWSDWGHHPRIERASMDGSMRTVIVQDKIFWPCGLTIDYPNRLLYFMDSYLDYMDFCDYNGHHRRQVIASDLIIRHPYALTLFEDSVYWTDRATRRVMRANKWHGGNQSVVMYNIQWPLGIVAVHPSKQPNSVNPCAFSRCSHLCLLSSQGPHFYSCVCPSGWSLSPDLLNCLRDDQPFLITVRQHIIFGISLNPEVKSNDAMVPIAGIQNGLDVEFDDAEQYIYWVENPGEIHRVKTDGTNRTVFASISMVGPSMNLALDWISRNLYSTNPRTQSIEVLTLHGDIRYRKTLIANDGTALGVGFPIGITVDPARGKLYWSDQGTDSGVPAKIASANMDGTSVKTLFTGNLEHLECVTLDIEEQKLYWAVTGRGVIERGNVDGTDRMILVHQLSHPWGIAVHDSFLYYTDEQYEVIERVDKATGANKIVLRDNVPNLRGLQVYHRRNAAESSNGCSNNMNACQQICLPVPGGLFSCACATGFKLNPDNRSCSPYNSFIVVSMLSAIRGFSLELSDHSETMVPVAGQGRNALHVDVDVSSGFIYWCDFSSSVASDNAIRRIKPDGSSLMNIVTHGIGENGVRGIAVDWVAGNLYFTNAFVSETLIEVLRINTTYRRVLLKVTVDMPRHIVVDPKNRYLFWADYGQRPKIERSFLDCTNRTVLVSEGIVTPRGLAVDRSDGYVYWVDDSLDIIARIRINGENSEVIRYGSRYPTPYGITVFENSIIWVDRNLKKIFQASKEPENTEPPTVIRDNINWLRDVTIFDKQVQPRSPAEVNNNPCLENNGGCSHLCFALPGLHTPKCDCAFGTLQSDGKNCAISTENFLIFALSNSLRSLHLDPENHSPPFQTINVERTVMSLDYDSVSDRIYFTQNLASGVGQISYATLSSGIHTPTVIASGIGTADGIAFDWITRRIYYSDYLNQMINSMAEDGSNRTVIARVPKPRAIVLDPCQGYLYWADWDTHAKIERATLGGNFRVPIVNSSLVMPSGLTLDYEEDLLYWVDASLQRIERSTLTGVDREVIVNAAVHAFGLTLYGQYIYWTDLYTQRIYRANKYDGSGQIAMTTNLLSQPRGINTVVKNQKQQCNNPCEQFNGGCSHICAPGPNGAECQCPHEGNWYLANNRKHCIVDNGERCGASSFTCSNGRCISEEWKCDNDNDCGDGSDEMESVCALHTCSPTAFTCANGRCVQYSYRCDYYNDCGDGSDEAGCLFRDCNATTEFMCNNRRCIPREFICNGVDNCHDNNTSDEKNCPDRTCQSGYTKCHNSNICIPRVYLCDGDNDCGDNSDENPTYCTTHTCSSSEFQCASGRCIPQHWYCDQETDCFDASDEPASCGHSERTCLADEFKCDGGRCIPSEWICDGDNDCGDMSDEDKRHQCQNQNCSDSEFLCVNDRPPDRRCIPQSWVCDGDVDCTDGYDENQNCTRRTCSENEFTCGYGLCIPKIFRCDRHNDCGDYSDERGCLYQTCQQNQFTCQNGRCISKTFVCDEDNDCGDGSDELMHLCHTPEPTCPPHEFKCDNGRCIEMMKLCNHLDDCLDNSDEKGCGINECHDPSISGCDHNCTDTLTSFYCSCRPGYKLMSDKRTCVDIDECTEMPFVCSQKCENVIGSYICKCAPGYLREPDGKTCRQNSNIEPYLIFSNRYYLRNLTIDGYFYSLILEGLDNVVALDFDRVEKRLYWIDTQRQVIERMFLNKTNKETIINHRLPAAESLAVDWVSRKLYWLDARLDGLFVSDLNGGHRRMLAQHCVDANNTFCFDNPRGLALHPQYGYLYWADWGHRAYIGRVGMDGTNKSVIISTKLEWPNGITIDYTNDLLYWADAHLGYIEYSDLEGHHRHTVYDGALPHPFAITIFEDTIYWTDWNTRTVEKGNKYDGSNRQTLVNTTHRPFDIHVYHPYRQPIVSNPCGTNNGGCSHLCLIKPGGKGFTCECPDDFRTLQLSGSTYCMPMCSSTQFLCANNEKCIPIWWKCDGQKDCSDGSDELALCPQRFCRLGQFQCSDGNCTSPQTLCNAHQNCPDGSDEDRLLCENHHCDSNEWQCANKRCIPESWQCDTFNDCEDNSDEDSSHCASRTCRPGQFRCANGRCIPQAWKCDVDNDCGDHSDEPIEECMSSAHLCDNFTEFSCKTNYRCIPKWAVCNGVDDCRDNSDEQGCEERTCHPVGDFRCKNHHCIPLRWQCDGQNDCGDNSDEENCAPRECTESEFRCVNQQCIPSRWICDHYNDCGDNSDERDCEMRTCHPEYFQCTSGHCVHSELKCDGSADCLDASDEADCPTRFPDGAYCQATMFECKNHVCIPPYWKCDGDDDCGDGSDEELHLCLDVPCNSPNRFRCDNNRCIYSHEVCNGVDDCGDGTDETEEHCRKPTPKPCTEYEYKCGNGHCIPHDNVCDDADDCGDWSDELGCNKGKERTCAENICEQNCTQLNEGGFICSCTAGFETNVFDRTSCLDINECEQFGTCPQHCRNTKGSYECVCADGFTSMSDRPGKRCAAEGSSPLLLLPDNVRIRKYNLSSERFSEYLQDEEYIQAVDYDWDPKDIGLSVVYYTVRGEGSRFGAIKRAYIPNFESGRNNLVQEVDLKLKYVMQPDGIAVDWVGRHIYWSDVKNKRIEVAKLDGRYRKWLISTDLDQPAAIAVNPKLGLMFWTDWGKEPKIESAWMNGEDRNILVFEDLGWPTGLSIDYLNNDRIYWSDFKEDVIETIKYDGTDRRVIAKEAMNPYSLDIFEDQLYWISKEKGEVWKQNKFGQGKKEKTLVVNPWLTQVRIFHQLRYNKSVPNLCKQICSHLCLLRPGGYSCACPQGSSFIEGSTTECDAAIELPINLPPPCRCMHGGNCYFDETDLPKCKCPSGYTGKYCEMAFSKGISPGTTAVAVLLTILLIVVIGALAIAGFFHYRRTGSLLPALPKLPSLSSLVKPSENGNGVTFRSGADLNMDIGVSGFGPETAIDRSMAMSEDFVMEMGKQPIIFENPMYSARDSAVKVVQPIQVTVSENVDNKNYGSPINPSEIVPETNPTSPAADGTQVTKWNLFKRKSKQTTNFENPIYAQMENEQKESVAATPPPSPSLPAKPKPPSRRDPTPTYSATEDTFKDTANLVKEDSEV

B1: WT human NGAL (ligand-free) (protein)
chain: QDSTSDLIPAPPLSKVPLQQNFQDNQFQGKWYVVGLAGNAILREDKDPQKMYATIYELKEDKSYNVTSVLFRKKKCDYWIRTFVPGCQPGEFTLGNIKSYPGLTSYLVRVVSTNYNQHAMVFFKKVSQNREYFKITLYGRTKELTSELKENFIRFSKSLGLPENHIVFPVPIDQCIDG
Kd: ~60 nM
